# Assay results: patent US20180071366A1
# Numbered stars: 1 amine (or outer) side, 2 acyl side, 3 side chain; on linkers, the order of the positions; unused ones are H or OH. Bridge positions count the residues as written; N and C are the ends. Square brackets hold non-standard residues; d marks the D form. * marks the point of attachment. C20 diacid = O=C(O)CCCCCCCCCCCCCCCCCCC(=O)*; γGlu = O=C(O)[C@H](CCC(=O)[*:2])N[*:1]; Hyp = O=C(O)[C@@H]1C[C@@H](O)CN1; NMeI = CC[C@H](C)[C@H](NC)C(=O)O; Orn = NCCC[C@H](N)C(=O)O; Sar = CNCC(=O)O
# B1: Compound 10 (peptide)
# peptide: {C20 diacid-γGlu}-RDGTAT[Orn]ATERLARFLQRSSF[Sar]A[NMeI]LSSTEVGSNT[Hyp]-NH2
# modifications: lactam 2-7
# SMILES: CC[C@H](C)[C@@H](C(=O)N[C@@H](CC(C)C)C(=O)N[C@@H](CO)C(=O)N[C@@H](CO)C(=O)N[C@H](C(=O)N[C@@H](CCC(=O)O)C(=O)N[C@H](C(=O)NCC(=O)N[C@@H](CO)C(=O)N[C@@H](CC(N)=O)C(=O)N[C@H](C(=O)N1C[C@H](O)C[C@H]1C(N)=O)[C@@H](C)O)C(C)C)[C@@H](C)O)N(C)C(=O)[C@H](C)NC(=O)CN(C)C(=O)[C@H](Cc1ccccc1)NC(=O)[C@H](CO)NC(=O)[C@H](CO)NC(=O)[C@H](CCCNC(=N)N)NC(=O)[C@H](CCC(N)=O)NC(=O)[C@H](CC(C)C)NC(=O)[C@H](Cc1ccccc1)NC(=O)[C@H](CCCNC(=N)N)NC(=O)[C@H](C)NC(=O)[C@H](CC(C)C)NC(=O)[C@H](CCCNC(=N)N)NC(=O)[C@H](CCC(=O)O)NC(=O)[C@@H](NC(=O)[C@H](C)NC(=O)[C@@H]1CCCNC(=O)C[C@H](NC(=O)[C@H](CCCNC(=N)N)NC(=O)CC[C@H](NC(=O)CCCCCCCCCCCCCCCCCCC(=O)O)C(=O)O)C(=O)NCC(=O)N[C@@H]([C@@H](C)O)C(=O)N[C@@H](C)C(=O)N[C@@H]([C@@H](C)O)C(=O)N1)[C@@H](C)O
# B2: Compound 14 (peptide)
# peptide: {C20 diacid-γGlu}-RDGTASKATERLAHFLQRSSF[Sar]A[NMeI]LSSTEVGSNT[Hyp]-NH2
# modifications: lactam 2-7
# SMILES: CC[C@H](C)[C@@H](C(=O)N[C@@H](CC(C)C)C(=O)N[C@@H](CO)C(=O)N[C@@H](CO)C(=O)N[C@H](C(=O)N[C@@H](CCC(=O)O)C(=O)N[C@H](C(=O)NCC(=O)N[C@@H](CO)C(=O)N[C@@H](CC(N)=O)C(=O)N[C@H](C(=O)N1C[C@H](O)C[C@H]1C(N)=O)[C@@H](C)O)C(C)C)[C@@H](C)O)N(C)C(=O)[C@H](C)NC(=O)CN(C)C(=O)[C@H](Cc1ccccc1)NC(=O)[C@H](CO)NC(=O)[C@H](CO)NC(=O)[C@H](CCCNC(=N)N)NC(=O)[C@H](CCC(N)=O)NC(=O)[C@H](CC(C)C)NC(=O)[C@H](Cc1ccccc1)NC(=O)[C@H](Cc1c[nH]cn1)NC(=O)[C@H](C)NC(=O)[C@H](CC(C)C)NC(=O)[C@H](CCCNC(=N)N)NC(=O)[C@H](CCC(=O)O)NC(=O)[C@@H](NC(=O)[C@H](C)NC(=O)[C@@H]1CCCCNC(=O)C[C@H](NC(=O)[C@H](CCCNC(=N)N)NC(=O)CC[C@H](NC(=O)CCCCCCCCCCCCCCCCCCC(=O)O)C(=O)O)C(=O)NCC(=O)N[C@@H]([C@@H](C)O)C(=O)N[C@@H](C)C(=O)N[C@@H](CO)C(=O)N1)[C@@H](C)O
# B3: Compound 12 (peptide)
# peptide: {C20 diacid-γGlu}-RDGEATKATERLAHFLQRSSF[Sar]A[NMeI]LSSTEVGSNT[Hyp]-NH2
# modifications: lactam 2-7
# SMILES: CC[C@H](C)[C@@H](C(=O)N[C@@H](CC(C)C)C(=O)N[C@@H](CO)C(=O)N[C@@H](CO)C(=O)N[C@H](C(=O)N[C@@H](CCC(=O)O)C(=O)N[C@H](C(=O)NCC(=O)N[C@@H](CO)C(=O)N[C@@H](CC(N)=O)C(=O)N[C@H](C(=O)N1C[C@H](O)C[C@H]1C(N)=O)[C@@H](C)O)C(C)C)[C@@H](C)O)N(C)C(=O)[C@H](C)NC(=O)CN(C)C(=O)[C@H](Cc1ccccc1)NC(=O)[C@H](CO)NC(=O)[C@H](CO)NC(=O)[C@H](CCCNC(=N)N)NC(=O)[C@H](CCC(N)=O)NC(=O)[C@H](CC(C)C)NC(=O)[C@H](Cc1ccccc1)NC(=O)[C@H](Cc1c[nH]cn1)NC(=O)[C@H](C)NC(=O)[C@H](CC(C)C)NC(=O)[C@H](CCCNC(=N)N)NC(=O)[C@H](CCC(=O)O)NC(=O)[C@@H](NC(=O)[C@H](C)NC(=O)[C@@H]1CCCCNC(=O)C[C@H](NC(=O)[C@H](CCCNC(=N)N)NC(=O)CC[C@H](NC(=O)CCCCCCCCCCCCCCCCCCC(=O)O)C(=O)O)C(=O)NCC(=O)N[C@@H](CCC(=O)O)C(=O)N[C@@H](C)C(=O)N[C@@H]([C@@H](C)O)C(=O)N1)[C@@H](C)O
# B4: Compound 13 (peptide)
# peptide: {C20 diacid-γGlu}-RDGTLTKATERLAHFLQRSSF[Sar]A[NMeI]LSSTEVGSNT[Hyp]-NH2
# modifications: lactam 2-7
# SMILES: CC[C@H](C)[C@@H](C(=O)N[C@@H](CC(C)C)C(=O)N[C@@H](CO)C(=O)N[C@@H](CO)C(=O)N[C@H](C(=O)N[C@@H](CCC(=O)O)C(=O)N[C@H](C(=O)NCC(=O)N[C@@H](CO)C(=O)N[C@@H](CC(N)=O)C(=O)N[C@H](C(=O)N1C[C@H](O)C[C@H]1C(N)=O)[C@@H](C)O)C(C)C)[C@@H](C)O)N(C)C(=O)[C@H](C)NC(=O)CN(C)C(=O)[C@H](Cc1ccccc1)NC(=O)[C@H](CO)NC(=O)[C@H](CO)NC(=O)[C@H](CCCNC(=N)N)NC(=O)[C@H](CCC(N)=O)NC(=O)[C@H](CC(C)C)NC(=O)[C@H](Cc1ccccc1)NC(=O)[C@H](Cc1c[nH]cn1)NC(=O)[C@H](C)NC(=O)[C@H](CC(C)C)NC(=O)[C@H](CCCNC(=N)N)NC(=O)[C@H](CCC(=O)O)NC(=O)[C@@H](NC(=O)[C@H](C)NC(=O)[C@@H]1CCCCNC(=O)C[C@H](NC(=O)[C@H](CCCNC(=N)N)NC(=O)CC[C@H](NC(=O)CCCCCCCCCCCCCCCCCCC(=O)O)C(=O)O)C(=O)NCC(=O)N[C@@H]([C@@H](C)O)C(=O)N[C@@H](CC(C)C)C(=O)N[C@@H]([C@@H](C)O)C(=O)N1)[C@@H](C)O
# B5: Compound 8 (peptide)
# peptide: {C20 diacid-γGlu}-RDGTAT[Orn]ATQRLAHFLQRSSF[Sar]A[NMeI]LSSTEVGSNT[Hyp]-NH2
# modifications: lactam 2-7
# SMILES: CC[C@H](C)[C@@H](C(=O)N[C@@H](CC(C)C)C(=O)N[C@@H](CO)C(=O)N[C@@H](CO)C(=O)N[C@H](C(=O)N[C@@H](CCC(=O)O)C(=O)N[C@H](C(=O)NCC(=O)N[C@@H](CO)C(=O)N[C@@H](CC(N)=O)C(=O)N[C@H](C(=O)N1C[C@H](O)C[C@H]1C(N)=O)[C@@H](C)O)C(C)C)[C@@H](C)O)N(C)C(=O)[C@H](C)NC(=O)CN(C)C(=O)[C@H](Cc1ccccc1)NC(=O)[C@H](CO)NC(=O)[C@H](CO)NC(=O)[C@H](CCCNC(=N)N)NC(=O)[C@H](CCC(N)=O)NC(=O)[C@H](CC(C)C)NC(=O)[C@H](Cc1ccccc1)NC(=O)[C@H](Cc1c[nH]cn1)NC(=O)[C@H](C)NC(=O)[C@H](CC(C)C)NC(=O)[C@H](CCCNC(=N)N)NC(=O)[C@H](CCC(N)=O)NC(=O)[C@@H](NC(=O)[C@H](C)NC(=O)[C@@H]1CCCNC(=O)C[C@H](NC(=O)[C@H](CCCNC(=N)N)NC(=O)CC[C@H](NC(=O)CCCCCCCCCCCCCCCCCCC(=O)O)C(=O)O)C(=O)NCC(=O)N[C@@H]([C@@H](C)O)C(=O)N[C@@H](C)C(=O)N[C@@H]([C@@H](C)O)C(=O)N1)[C@@H](C)O
# B6: Compound 11 (peptide)
# peptide: {C20 diacid-γGlu}-EDGTATKATERLAHFLQRSSF[Sar]A[NMeI]LSSTEVGSNT[Hyp]-NH2
# modifications: lactam 2-7
# SMILES: CC[C@H](C)[C@@H](C(=O)N[C@@H](CC(C)C)C(=O)N[C@@H](CO)C(=O)N[C@@H](CO)C(=O)N[C@H](C(=O)N[C@@H](CCC(=O)O)C(=O)N[C@H](C(=O)NCC(=O)N[C@@H](CO)C(=O)N[C@@H](CC(N)=O)C(=O)N[C@H](C(=O)N1C[C@H](O)C[C@H]1C(N)=O)[C@@H](C)O)C(C)C)[C@@H](C)O)N(C)C(=O)[C@H](C)NC(=O)CN(C)C(=O)[C@H](Cc1ccccc1)NC(=O)[C@H](CO)NC(=O)[C@H](CO)NC(=O)[C@H](CCCNC(=N)N)NC(=O)[C@H](CCC(N)=O)NC(=O)[C@H](CC(C)C)NC(=O)[C@H](Cc1ccccc1)NC(=O)[C@H](Cc1c[nH]cn1)NC(=O)[C@H](C)NC(=O)[C@H](CC(C)C)NC(=O)[C@H](CCCNC(=N)N)NC(=O)[C@H](CCC(=O)O)NC(=O)[C@@H](NC(=O)[C@H](C)NC(=O)[C@@H]1CCCCNC(=O)C[C@H](NC(=O)[C@H](CCC(=O)O)NC(=O)CC[C@H](NC(=O)CCCCCCCCCCCCCCCCCCC(=O)O)C(=O)O)C(=O)NCC(=O)N[C@@H]([C@@H](C)O)C(=O)N[C@@H](C)C(=O)N[C@@H]([C@@H](C)O)C(=O)N1)[C@@H](C)O
# B7: Compound 9 (peptide)
# peptide: {C20 diacid-γGlu}-RDGTAT[Orn]ATQRLAHFLQRSSF[Sar]A[NMeI]PSSTEVGSNT[Hyp]-NH2
# modifications: lactam 2-7
# SMILES: CC[C@H](C)[C@@H](C(=O)N1CCC[C@H]1C(=O)N[C@@H](CO)C(=O)N[C@@H](CO)C(=O)N[C@H](C(=O)N[C@@H](CCC(=O)O)C(=O)N[C@H](C(=O)NCC(=O)N[C@@H](CO)C(=O)N[C@@H](CC(N)=O)C(=O)N[C@H](C(=O)N1C[C@H](O)C[C@H]1C(N)=O)[C@@H](C)O)C(C)C)[C@@H](C)O)N(C)C(=O)[C@H](C)NC(=O)CN(C)C(=O)[C@H](Cc1ccccc1)NC(=O)[C@H](CO)NC(=O)[C@H](CO)NC(=O)[C@H](CCCNC(=N)N)NC(=O)[C@H](CCC(N)=O)NC(=O)[C@H](CC(C)C)NC(=O)[C@H](Cc1ccccc1)NC(=O)[C@H](Cc1c[nH]cn1)NC(=O)[C@H](C)NC(=O)[C@H](CC(C)C)NC(=O)[C@H](CCCNC(=N)N)NC(=O)[C@H](CCC(N)=O)NC(=O)[C@@H](NC(=O)[C@H](C)NC(=O)[C@@H]1CCCNC(=O)C[C@H](NC(=O)[C@H](CCCNC(=N)N)NC(=O)CC[C@H](NC(=O)CCCCCCCCCCCCCCCCCCC(=O)O)C(=O)O)C(=O)NCC(=O)N[C@@H]([C@@H](C)O)C(=O)N[C@@H](C)C(=O)N[C@@H]([C@@H](C)O)C(=O)N1)[C@@H](C)O
# Target: recombinant human amylin 3 receptor (hAMYR3) (human), P30988
# Experiment: cell-based or functional assay
# Sequence of recombinant human amylin 3 receptor (hAMYR3) (human), P30988 (P30988 25-474, chain 1 of 2): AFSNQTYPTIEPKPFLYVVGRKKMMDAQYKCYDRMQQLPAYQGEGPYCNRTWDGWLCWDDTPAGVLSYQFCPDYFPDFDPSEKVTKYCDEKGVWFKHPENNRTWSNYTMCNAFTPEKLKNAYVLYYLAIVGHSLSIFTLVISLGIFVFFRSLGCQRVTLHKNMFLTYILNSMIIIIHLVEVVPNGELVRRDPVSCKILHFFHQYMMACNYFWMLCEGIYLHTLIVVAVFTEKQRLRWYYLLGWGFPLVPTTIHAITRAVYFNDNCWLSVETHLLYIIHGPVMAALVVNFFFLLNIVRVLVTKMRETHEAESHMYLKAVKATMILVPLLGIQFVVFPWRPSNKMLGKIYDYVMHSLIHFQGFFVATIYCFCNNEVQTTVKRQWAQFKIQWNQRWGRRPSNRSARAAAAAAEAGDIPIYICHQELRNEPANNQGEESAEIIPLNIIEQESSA
# Sequence of recombinant human amylin 3 receptor (hAMYR3) (human), P30988 (O60896 24-148, chain 2 of 2, further chain): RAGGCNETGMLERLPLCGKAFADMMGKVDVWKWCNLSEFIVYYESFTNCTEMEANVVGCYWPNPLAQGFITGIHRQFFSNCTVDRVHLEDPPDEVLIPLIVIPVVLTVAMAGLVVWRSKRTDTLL
row,"hAMYR3 EC50 [nM] (cAMP formation, 1321N1 cells expressing hAMYR3)",Binder
1,0.068 nM,B1
2,0.108 nM,B2
3,0.999 nM,B3
4,0.456 nM,B4
5,0.059 nM,B5
6,0.024 nM,B6
7,0.013 nM,B7

# Target: recombinant human calcitonin receptor (hCT-R) (human), P30988
# Experiment: cell-based or functional assay
# Sequence of recombinant human calcitonin receptor (hCT-R) (human), P30988 (P30988 25-474): as the sequence (P30988 25-474, chain 1 of 2) above
row,"hCT-R EC50 [nM] (cAMP formation, 1321N1 cells expressing hCT-R)",Binder
1,0.345 nM,B1
2,0.386 nM,B2
3,0.893 nM,B3
4,1.41 nM,B4
5,0.129 nM,B5
6,0.068 nM,B6
7,0.027 nM,B7
